Substitutions are numbered along the chain they refer to.
T1: 10E8-GT10.2 epitope scaffold (designed scaffold 10E8-GT10.2 with …, N-linked glycosylation sites added (positions not given))
T1 chain: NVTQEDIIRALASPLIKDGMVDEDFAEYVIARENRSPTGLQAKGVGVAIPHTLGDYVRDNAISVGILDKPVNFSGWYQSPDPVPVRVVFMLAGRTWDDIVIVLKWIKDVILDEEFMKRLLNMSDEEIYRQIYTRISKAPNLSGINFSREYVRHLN

B1: NHP-10E8_MPER-GT10v55_W26-07 (antibody, V domains shown)
VH: QVQLQESGPGLVKPSETLSLTCAVSGGSFSSYWWGWIRQTPGKGLEWIGSIYGSSGTTEYNPSHKSRATISRDTSENQFSLKLSSVTAADTAVYYCARSGEWPYNFWGGTHNPPHWYFDLWGPGTPIIISS
VL: DVVMTQSPLSLSITPGQPASISCRSSHSLIHSNGNTYLSWYQQKPGQPPRRLIYEVSKQDSGVPERFSGSGAGTDFTLKISRVEAEDVGIYYCGQGTHLPLTFGPGTKLDIK
B2: NHP-10E8_MPER-GT10v55_W21-14 (antibody, V domains shown)
VH: QVQLQESGPGLVKPSETLSLTCAVSGGSISSGYYYWSWIRQPPGKGLEWIGYITYSGSTSYNPSLKSRVTISRDTSKNQFSLKLSSVTAADTAVYYCASAPSYYNFWSGYYHLDYFDYWGQGVLVTVSS
VL: QSVLTQPPSVSGAPGQRVTISCTGSSSNIGGYYVSWYQQLPGTTPKLLIYQDNKRPSGVSDRFSGSKSGTSASLTITGLQTEDEADYYCLSYDSSLSAHGLFGGGTRLTV
B3: NHP-10E8_MPER-GT10v55_W26-04 (antibody, V domains shown)
VH: EVQLVESGGGLVQPGGSLRLSCAASGFTFSSYGMHWVRQAPGKGLEWVAVIWYDGSKKYYADSVKDRFTISRDNSKNMLYLQMNNLKLEDTAVYYCARGGAYYNFWSGYYTLLNRFDVWGPGVLVTVSS
VL: DIVMTQTPLSLPVTPGEPASISCRSSQSLLDSEDGNTYLDWYLQKPGQSPQLLIYEVSNRASGVPDRFSGSGSDTDFTLKISRVEAEDVGVYYCMQGLEFPYSFGQGTKVEIK
B4: NHP-10E8_MPER-GT10v55_W21-13 (antibody, V domains shown)
VH: QLQLQESGPGLVKPSETLSLTCAVSGGSISGGYGWSWIRQPLGKGLEWIGHIFGSIGSTYYNPSLKSRVTISTDTSKNQFSLKLSSVTAADTAVYYCARTRSFYNFWSGYYTRHAFDFWGQGLRVTVSS
VL: B3 VL with P15L, D40E, G97A, Y102P, S103T
B5: NHP-10E8_MPER-GT10v55_W21-10 (antibody, V domains shown)
VH: EVRLVESGGDLVQPGGSLRLSCAASGFTFSYYSMSWVRQAPGKGLEWIGFIKNKADGGTEAYAESVKGRFTISRDDSENTLYLQMNSLKTDDTAVYSCTRGRVYYNFWSGFYTGGRFDVWGPGVLVTVSS
VL: B3 VL with V84L, Y102F, S103T, Q106P, V110L, E111D
B6: NHP-Comp_MPER-GT10v55_W21-01 (antibody, V domains shown)
VH: QVQLQESGPGLVKPSETLSLTCAVSGGSFSSYWWGWIRQPPGKGLEWIGSIYGSSGSTEYNPSLKSRATISRDTSKNQFSLKLSSVTAADTAVYYCARVKAPEIFGVVITGYYFDYWGQGVLVTVSS
VL: SYELTQPLSVSVALGQMARITCGGNNIGRKYVYWYQQKPDQAPVLVIYEDSKRPSGIPERFAGSNSGNTATLTIDGAQARDEADYYCQVWDSSTAYIFGAGTRLTV
B7: NHP-10E8_MPER-GT10v55_W21-08 (antibody, V domains shown)
VH: EVQLVESGGGLVQPGGSLRLSCAASGFTFSDYYMYWVRQAPGKGLEWVGFIRSKAYGGTAEYAASVKGRFTISRDDSKSIAYLQMSSLKTEDTAVYYCTRALPYYNFWSGYYTHFDAFDFWGQGLRVTVSS
VL: QAAPTQPPSVSGSPGQSVTISCTGTSSDIGYYNAVSWYQQHPGKAPKLMIYEVSKRPSGVSDRFSGSKSGNTASLTISGLQAEDEADYYCSSYAGSNTLLFGGGTRLTV
B8: NHP-10E8_MPER-GT10v55_W21-16 (antibody, V domains shown)
VH: B2 VH with S99R, A100V, P101G, S102V, H112T, L113N, D114T
VL: B7 VL with L99F, L100I, G103A
B9: NHP-10E8_MPER-GT10v55_W21-17 (antibody, V domains shown)
VH: QVQLQESGPGLVKPSETLSLTCVVAGGSISDDYYWSWIRQSPGKGLEWIGYIYGSGGGTKYNPSLKNRVTISIDTSKNQFSLKLSSVTAADTAVYYCARELRYYNFWSGYYDNYYGLDSWGQGVVVTVSS
VL: DIVMTQTPLSLPITPGEPASISCRSSQSLLHSTGNTYLHWYLQKPGQSPQLLIYGGSNRASGVPDRFSGSGSGTDFTLKISKVEAEDVGVYYCVQAIAFPFTFGPGTKLDIK
B10: NHP-10E8_MPER-GT10v55_W21-11 (antibody, V domains shown)
VH: EVRLVESGGGLVQPGGSLRLSCAASGFTFSDYYMSWVRQAPGKGPEWVGFIRNKANGGTAEYAASVKGRFTISRDDSKSIASLQMNSLKTEDTAVYYCARDRGNYNFWSGYSGSDYFDYWGQGVLVTVSS
VL: QSVLTQPPSVSAAPGQKVTISCSGSSSNIGRSYVSWYQQVPGTAPKLLIYDNNKRPSGVSDRFSGSKSGTSASLAITGLQTGDEADYYCGAWDSSLSAGLFGGGTRLTV
B11: NHP-10E8_MPER-GT10v55_W26-02 (antibody, V domains shown)
VH: EVQLVESGGGLAKPGGSLRLSCAASGFTFSDYYMDWVRQAPGKGLEWVSRISNGGGSTWYADSVKGRFTISRENAKNTLYLQMNSLRAEDTAVYYCASELSYYNFWSGYGASYGLDSWGQGVVVTVSS
VL: QPVLTQPTSLSASPGASARLTCTLRSGISVGSYRIFWYQQKPGSPPRYLLNYHTDSDKHQGSGVPSRFSGSKDASANAGILLISGLQSEDEADYYCMIWHNNAYIFGAGTRLTV
B12: NHP-10E8_MPER-GT10v55_W21-18 (antibody, V domains shown)
VH: QLQLQESGPGLVKPSETLSLTCAVSGGSISSSYWSWIRQAPGKGLEWIGYIYGSGSSTNYNPSLKSRVTLSVDTSKNQLSLKLSSVTAADTAVYYCARDVKDYNFWSGYYEDGYFDYWGQGVLVTVSS
VL: DIVMTQTPLSLPVTPGEPASISCRSSQSLLHSNGNTYLHWYLQKPGQSPRLLIYKVTNRESGVPDRFSGSGSGTDFTLKISRVEPEDVGVYYCMQSTKDPYSFGQGTKVEIK
B13: NHP-Comp_MPER-GT10v55_W21-02 (antibody, V domains shown)
VH: QVQLQESGPAVVKPSETLSLTCAVSGGSISSNNWWSWIRQSPGKGLEWIGGLYGSGGNTEYYPSLKSRVTISVDTSKNQFSLKLSSVTAADTAVYYCASPAPYYGRGYSFDAFDFWGQGLRVTVSS
VL: QSALTQPPSVSKSLGQSVTISCTGTSSDIGGYNGVSWYQQHSGTAPKLLIYDVNKRPSGVSDRFSGSKSGNTASLTISGLQAEDEADYYCCSYRGGSTYWVFGGGTRLTV
B14: NHP-10E8_MPER-GT10v55_W21-15 (antibody, V domains shown)
VH: QLQLQESGPGLVKPSETLSLTCAVSGGSISSSNWWSWIRQPPGKGLEWIGRISGSGGSTSDNPSLKSRVTISKDTSKNQFSLKLSSVTAADTAVYYCASESFYYNFWSGYYQENSLDVWGRGVLVTVSS
VL: QPVLTQPTSLSASPGASARLSCTLSSGINVGSYSIFWYQQKPGSPPRYLLYYYSDSSKHQGSGVPSRFSGSKDASANAGLLLISGLQSEDEADYYCAIWHSSAYVLFGGGTRLTV
B15: NHP-10E8_MPER-GT10v55_W21-09 (antibody, V domains shown)
VH: EVRLVESGGGLVQPGGSLRLSCAASGFTFSDYYMSWVRQAPGKGPEWVGFIRNKANGGTAEYAASVKGRFTISRDDSKSIASLQMNSLKTEDTAVYYCARESPYYNFWSGYYGTNDAFDFWGQGLRVTVSS
VL: QPVLTQSPSASASLGASVKLTCTLSSGHSSYAIAWHQQQQGKAPRYLMRLNSVGSHSKGDGIPDRFSGSSSGAERYLTISNLQSEDEADYYCQTWTTGIQVFGGGTRLTV

Target: T1, 10E8-GT10.2 epitope scaffold

Binder | Kd [µM]
B1 | 0.0326
B2 | 2.4
B3 | 5.05
B4 | 1.3
B5 | 0.00081
B6 | 2.63
B7 | 13.2
B8 | 2.4
B9 | 0.00241
B10 | 8.11
B11 | 3.09
B12 | 6
B13 | 6.84
B14 | 5.13
B15 | 3.32
